B1: ADLP (TT_C1082, alanine dehydrogenase-like protein from Thermus thermophilus HB27) with N-terminal Strep-tag (natural protein)
chain: MEFGVPKERSGGEIPERRVPLTPQGVRELVASGHRVYVERGAGEGAGFPDEAYEEAGARLVGREEAFGRPQVVLKVARPTLEEVGLMRKNAVLMAFLHLAVAESPLVEAMAQKGLTAIGYELVGEEGRRPVLKAMSEIAGRMAPQLAGRLLEAPQGPGILLSGLVGIPPADVVVLGAGVLGRAAARAFLGAGASVHLLDRALPPLEEAAREAPGAITALVTQDRLERYVAFADVLVGAVAVPGERTPLLLTRGLLARMRPGSVLLDFSIDQGGVSETSRPGVYQEMGVTHFCLPNVPALVPRTASHALTATLLPYLLRIQEDPLALPGLRQGAYLLFGEKGGHLE

What was measured:
[1] = target: TtCoAT (TT_C1083, CoA transferase from Thermus thermophilus HB27) with C-terminal (His)6-tag (Thermus thermophilus HB27) (UniProt Q72IP9); assay: cryo-EM structure
[2] = target: TtCoAT (TT_C1083, CoA transferase from Thermus thermophilus HB27) with C-terminal (His)6-tag (Thermus thermophilus HB27) (UniProt Q72IP9); assay: cryo-EM structure; remark: listed apart in the source
[3] = target: TtCoAT (TT_C1083, CoA transferase from Thermus thermophilus HB27) with C-terminal (His)6-tag (Thermus thermophilus HB27) (UniProt Q72IP9); assay: SEC
[4] = target: the molecule itself; assay: cryo-EM structure

Molecule | stoichiometry N [1] | stoichiometry N [2] | stoichiometry N [3] | stoichiometry N [4]
TtCoAT (TT_C1083, CoA transferase from Thermus thermophilus HB27) with C-terminal (His)6-tag (from UniProt Q72IP9 1-444) (enzyme) | 2 | 2 | 4 | 
B1 |  |  |  | 6
